{"source": "patent US20230133381A1"}
{"target": "human DR5 (human)", "assay": "SPR (BIAcore X100), human DR5 on CM5 chip, IgG injected, 1:1 Langmuir model", "units": {"Kd": "pM", "koff": "s⁻¹", "kon": "M⁻¹ s⁻¹"}}
{"binder": "DA35 (antibody, V domains shown) VH: AVTLDESGGGLQTPGGGLSLVCKGSGFTFSSFNMLWVRQAPGKGLEWVAGIGKSDRYTGYGSAVKGRATISRDDGQSTARLQMNSLRAEDTAVYYCVKDAGSGCGSGGWTGACIDTWGHGTEVIVSS VL: LTQPSSVSANLGGTVEITCSGGDSYAGSYYYGWYQQKAPGSAPVTVIYNNNNRPSNIPSRFSGSTSGSTATLTITGVQAEDEATYFCGSRDSSYVGIFGAGTTLTVL", "Kd": 80.1, "koff": "9.12e-05", "kon": "1.13e+06"}
{"binder": "DA24 (antibody, V domains shown) VH: AVTLDESGGGLQTPGGGLSLVCKGSGFTFSSFNMLWVRQAPGKGLEWVAGIGKSDRYTGYGSAVKGRATISRDDGQSTVRLQLNNLRAEDTGTYYCVKDAGSGCGSGGWTGACIDTWGHGTEVIVSS VL: LTQPSSVSANLGGTVEITCSGGDSYAGSYYYGWYQQKAPGSAPVTVIYNNNNRPSNIPSRFSGSTSGSTATLTITGVQAEDEATYYCGSRDSSYVGIFGAGTTLTVL", "Kd": 1.02, "koff": "1.23e-06", "kon": "1.2e+06"}
{"binder": "DA32 (antibody, V domains shown) VH: AVTLDESGGGLQTPGGGLSLVCKGSGFTFSSFNMLWVRQAPGKGLEWVAGIGKSDRYTGYGSAVKGRATISRDDGQSTVRLQLNNLRAEDTAVYYCVKDAGSGCGSGGWTGACIDTWGHGTEVIVSS VL: LTQPSSVSANLGGTVEITCSGGDSYAGSYYYGWYQQKAPGSAPVTVIYNNNNRPSNIPSRFSGSTSGSTATLTITGVQAEDEAVYFCGSRDSSYVGIFGAGTTLTVL", "Kd": 75.1, "koff": "8.59e-05", "kon": "1.14e+06"}
{"binder": "DA34 (antibody, V domains shown) VH: AVTLDESGGGLQTPGGGLSLVCKGSGFTFSSFNMLWVRQAPGKGLEWVAGIGKSDRYTGYGSAVKGRATISRDDGQSTAYLQMNSLRAEDTAVYYCVKDAGSGCGSGGWTGACIDTWGHGTEVIVSS VL: LTQPSSVSANLGGTVEITCSGGDSYAGSYYYGWYQQKAPGSAPVTVIYNNNNRPSNIPSRFSGSTSGSTATLTITGVQAEDEATYYCGSRDSSYVGIFGAGTTLTVL", "Kd": 94.2, "koff": "9.5e-05", "kon": "1e+06"}
{"binder": "DA25 (antibody, V domains shown) VH: AVTLDESGGGLQTPGGGLSLVCKGSGFTFSSFNMLWVRQAPGKGLEWVAGIGKSDRYTGYGSAVKGRATISRDDGQSTVYLQMNSLRAEDTGTYYCVKDAGSGCGSGGWTGACIDTWGHGTEVIVSS VL: LTQPSSVSANLGGTVEITCSGGDSYAGSYYYGWYQQKAPGSAPVTVIYNNNNRPSNIPSRFSGSTSGSTATLTITGVQAEDEAVYFCGSRDSSYVGIFGAGTTLTVL", "Kd": 1.62, "koff": "1.71e-06", "kon": "1.05e+06"}
{"binder": "DA27 (antibody, V domains shown) VH: AVTLDESGGGLQTPGGGLSLVCKGSGFTFSSFNMLWVRQAPGKGLEWVAGIGKSDRYTGYGSAVKGRATISRDDGQSTVRLQLNNLRAEDTGTYYCVKDAGSGCGSGGWTGACIDTWGHGTEVIVSS VL: LTQPSSVSANLGGTVEITCSGGDSYAGSYYYGWYQQKAPGSAPVTVIYNNNNRPSNIPSRFSGSTSGSTATLTITGVQAEDEATYFCGSRDSSYVGIFGAGTTLTVL", "Kd": 1.92, "koff": "2.24e-06", "kon": "1.17e+06"}
{"binder": "DA3 (antibody, V domains shown) VH: EVQLVESGGGLVQPGGSLRLSCAASGFTFSSFNMLWVRQAPGKGLEWVAGIGKSDRYTGYGSAVKGRFTISRDTSKSTVYLQMNSLRAEDTAVYYCVRDAGSGCGSGGWTGACIDTWGQGTLVTVSS VL: DIQMTQSPSSLSASVGDRVTITCSGGDSYAGSYYYGWYQQKPGKAPKTLIYNNNNRPSGVPSRFSGSTSGTDFTLTISSLQPEDFATYYCGSRDSSYVGIFGQGTKVEIK", "koff": "< 1e-05", "kon": "4.9e+06"}
{"binder": "DA2 (antibody, V domains shown) VH: EVQLVESGGGLVQPGGSLRLSCAASGFTFSSFNMLWVRQAPGKGLEWVAGIGKSDRYTGYGSAVKGRFTISRDDSKSTVYLQMNSLRAEDTAVYYCVRDAGSGCGSGGWTGACIDTWGQGTLVTVSS VL: DIQMTQSPSSLSASVGDRVTITCSGGDSYAGSYYYGWYQQKPGKAPKTLIYNNNNRPSGVPSRFSGSRSGTDFTLTISSLQPEDFATYYCGSRDSSYVGIFGQGTKVEIK", "Kd": "< 5.3", "kon": "1.9e+06"}
{"binder": "DA21 (antibody, V domains shown) VH: EVQLVESGGGLVQPGGSLRLSCAASGFTFSSFNMLWVRQAPGKGLEWVAGIGKSDRYTGYGSAVKGRFTISRDDSKSTVYLQMNSLRAEDTAVYYCVRDAGSGCGSGGWTGACIDTWGQGTLVTVSS VL: DIQMTQSPSSLSASVGDRVTITCSGGDSYAGSYYYGWYQQKPGKAPKTLIYNNNNRPSGVPSRFSGSRSGTDFTLTISSLQPEDFATYYCGSRDSSGAGGFGQGTKVEIK", "Kd": 6.43, "koff": "7.17e-06", "kon": "1.11e+06"}
{"binder": "DA10 (antibody, V domains shown) VH: EVQLVESGGGLVQPGGSLRLSCAASGFTFSSFNMLWVRQAPGKGLEWVAGIGKSDRYTGYGSAVKGRFTISRDTSKNTAYLQMNSLRAEDTAVYYCSRDAGSGCGSGGWTGACIDTWGQGTLVTVSS VL: DIQMTQSPSSLSASVGDRVTITCSGGDSYAGSYYYGWYQQKPGKAPKTLIYNNNNRPSGVPSRFSGSRSGTDFTLTISSLQPEDFATYYCGSRDSSYVGIFGQGTKVEIK", "Kd": 7, "koff": "1.6e-05", "kon": "2.3e+06"}
{"binder": "DA20 (antibody, V domains shown) VH: EVQLVESGGGLVQPGGSLRLSCAASGFTFSSFNMLWVRQAPGKGLEWVAGIGKSDRYTGYGSAVKGRFTISRDDSKSTVYLQMNSLRAEDTAVYYCVRDAGSGCGSGGWTGACIDTWGQGTLVTVSS VL: DIQMTQSPSSLSASVGDRVTITCSGGDSYAGSYYYGWYQQKPGKAPKTLIYNNNNRPSGVPSRFSGSRSGTDFTLTISSLQPEDFATYYCGSRDSAGMGAFGQGTKVEIK", "Kd": 12, "koff": "1.21e-05", "kon": "1e+06"}
{"binder": "DA16 (antibody, V domains shown) VH: EVQLVESGGGLVQPGGSLRLSCAASGFTFSSFNMLWVRQAPGKGLEWVAGIGKSDRYTGYGSAVKGRFTISRDTSKNTAYLQMNSLRAEDTAVYYCSRDAGSGCGSGGWTGACIDTWGQGTLVTVSS VL: DIQMTQSPSSLSASVGDRVTITCSGGDSYAGSYYYGWYQQKPGKAPKTLIYNNNNRPSGVPSRFSGSRSGTDFTLTISSLQPEDFATYYCGSRDSSGAGGFGQGTKVEIK", "Kd": 26.1, "koff": "5.53e-05", "kon": "2.11e+06"}
{"binder": "DA7 (antibody, V domains shown) VH: EVQLVESGGGLVQPGGSLRLSCAASGFTFSSFNMLWVRQAPGKGLEWVAGIGKSDRYTGYGSAVKGRFTISRDDSKSTVYLQMNSLRAEDTAVYYCSRDAGSGCGSGGWTGACIDTWGQGTLVTVSS VL: DIQMTQSPSSLSASVGDRVTITCSGGDSYAGSYYYGWYQQKPGKAPKTLIYNNNNRPSGVPSRFSGSTSGTDFTLTISSLQPEDFATYYCGSRDSSYVGIFGQGTKVEIK", "Kd": 1.9, "koff": "2.9e-06", "kon": "1.4e+06"}
{"binder": "DA14 (antibody, V domains shown) VH: EVQLVESGGGLVQPGGSLRLSCAASGFTFSSFNMLWVRQAPGKGLEWVAGIGKSDRYTGYGSAVKGRFTISRDTSKNTAYLQMNSLRAEDTAVYYCSRDAGSGCGSGGWTGACIDTWGQGTLVTVSS VL: DIQMTQSPSSLSASVGDRVTITCSGGDSYAGSYYYGWYQQKPGKAPKTLIYNNNNKAKGVPSRFSGSRSGTDFTLTISSLQPEDFATYYCGSRDSSYVGIFGQGTKVEIK", "Kd": 23.5, "koff": 0.0001, "kon": "4.27e+06"}
{"binder": "DA4 (antibody, V domains shown) VH: EVQLVESGGGLVQPGGSLRLSCAASGFTFSSFNMLWVRQAPGKGLEWVAGIGKSDRYTGYGSAVKGRFTISRDDSKNTVYLQMNSLRAEDTAVYYCVRDAGSGCGSGGWTGACIDTWGQGTLVTVSS VL: DIQMTQSPSSLSASVGDRVTITCSGGDSYAGSYYYGWYQQKPGKAPKTLIYNNNNRPSGVPSRFSGSTSGTDFTLTISSLQPEDFATYYCGSRDSSYVGIFGQGTKVEIK", "Kd": 0.1, "koff": "1.2e-07", "kon": "1.2e+06"}
{"binder": "DA1 (antibody, V domains shown) VH: EVQLVESGGGLVQPGGSLRLSCAASGFTFSSFNMLWVRQAPGKGLEWVAGIGKSDRYTGYGSAVKGRFTISRDDSKSTVYLQMNSLRAEDTAVYYCVRDAGSGCGSGGWTGACIDTWGQGTLVTVSS VL: DIQMTQSPSSLSASVGDRVTITCSGGDSYAGSYYYGWYQQKPGKAPKTLIYNNNNRPSGVPSRFSGSTSGTDFTLTISSLQPEDFATYYCGSRDSSYVGIFGQGTKVEIK", "Kd": "< 2", "koff": "< 1e-05", "kon": "4.9e+06"}
{"binder": "DA13 (antibody, V domains shown) VH: EVQLVESGGGLVQPGGSLRLSCAASGFTFSSFNMLWVRQAPGKGLEWVAGIGKSDRYTGYGSAVKGRFTISRDTSKNTAYLQMNSLRAEDTAVYYCSRDAGSGCGSGGWTGACIDTWGQGTLVTVSS VL: DIQMTQSPSSLSASVGDRVTITCSGGDSYAGSYYYGWYQQKPGKAPKTLIYNNNNRPSGVPSRFSGSRSGTDFTLTISSLQPEDFATYYCGSRDSAGMGAFGQGTKVEIK", "Kd": 11.2, "koff": "2.94e-05", "kon": "2.62e+06"}
{"binder": "DA12 (antibody, V domains shown) VH: EVQLVESGGGLVQPGGSLRLSCAASGFTFSSFNMLWVRQAPGKGLEWVAGIGKSDRYTGYGSAVKGRFTISRDTSKNTAYLQMNSLRAEDTAVYYCSRDAGSGCGSGGWTGACIDTWGQGTLVTVSS VL: DIQMTQSPSSLSASVGDRVTITCSGGDSYAGSYYYGWYQQKPGKAPKTLIYNNNNLMPGVPSRFSGSRSGTDFTLTISSLQPEDFATYYCGSRDSSYVGIFGQGTKVEIK", "Kd": 12.7, "koff": "2.99e-05", "kon": "2.37e+06"}
{"binder": "DA6 (antibody, V domains shown) VH: EVQLVESGGGLVQPGGSLRLSCAASGFTFSSFNMLWVRQAPGKGLEWVAGIGKSDRYTGYGSAVKGRFTISRDDSKSTVYLQMNSLRAEDTAVYYCARDAGSGCGSGGWTGACIDTWGQGTLVTVSS VL: DIQMTQSPSSLSASVGDRVTITCSGGDSYAGSYYYGWYQQKPGKAPKTLIYNNNNRPSGVPSRFSGSTSGTDFTLTISSLQPEDFATYYCGSRDSSYVGIFGQGTKVEIK", "Kd": 0.53, "koff": "4.2e-06", "kon": "7.8e+06"}
